Experimental data published in US6828106.

Molecular target: T1, reporter peptide (Example 9, TEV) (not fully specified)
T1 chain: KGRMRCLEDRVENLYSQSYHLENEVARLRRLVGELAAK

B1: TEV (Tobacco Etch Virus) protease (protein)
chain: GESLFKGPRDYNPISSTICHLTNESDGHTTSLYGIGFGPFIITNKHLFRRNNGTLLVQSLHGVFKVKNTTTLQQHLIDGRDMIIIRMPKDFPPFPQKLKFREPQREERICLVTTNFQTKSMSSMVSDTSCTFPSSDGIFWKHWIQTKDGQCGSPLVSTRDGFIVGIHSASNFTNTNNYFTSVPKNFMELLTNQEAQQWVSGWRLNADSVLWGGHKVFMSKPEEPFQPVKEATQLMNELVYSQ
  Km of TEV protease by FP analysis: 36 µM
  Km of TEV protease by FRET analysis: 36 µM
